US20240036027A1 (UNIVERSITY OF MASSACHUSETTS, published 2024)

Tests used:
[1] = biological target: T1, Streptavidin (unconjugated, EMD Millipore) (UniProt P22629 37-163); assay: single-channel current recording, apparent Kd=kOff/kOn, N=3, n=903
[2] = biological target: T1, Streptavidin (unconjugated, EMD …); assay: single-channel current recording, kOn=1/(C*tauOn)
[3] = biological target: T1, Streptavidin (unconjugated, EMD …); assay: single-channel current recording, kOff=1/tauOff
[4] = biological target: T1, Streptavidin (unconjugated, EMD …); assay: single-channel current recording, calculated from kOff and kOn
[5] = biological target: T1, Streptavidin (unconjugated, EMD …); assay: single-channel current recording, streptavidin alone, concentration dependence
[6] = biological target: T1, Streptavidin (unconjugated, EMD …); assay: single-channel current recording, streptavidin alone, N=12, n=2846
[7] = biological target: T1, Streptavidin (unconjugated, EMD …); assay: single-channel current recording
[8] = biological target: T1, Streptavidin (unconjugated, EMD …); assay: single-channel current recording, discrete binding events
[9] = biological target: T1, Streptavidin (unconjugated, EMD …); assay: single-channel current recording, KOff of the lower Ires state taking transient returns to basal conductance as dissociation

T1 sequence (P22629 37-163 limits assumed): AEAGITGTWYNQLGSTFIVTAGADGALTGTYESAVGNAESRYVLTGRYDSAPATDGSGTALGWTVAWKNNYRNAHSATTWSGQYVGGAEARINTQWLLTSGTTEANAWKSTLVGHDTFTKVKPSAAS

B1: OmpG^L6-SA1.1 (designed binder)
chain: MEERNDWHFNIGAMYEIENVEGYGEDMDGLAEPSVYFNAANGPWRIALAYYQEGPVDYSAGKRGTWFDRPELEVHYQFLENDDFSFGLTGGFRNYGYHYVDEPGKDTANMQRWKIAPDWDVKLTDDLRFNGWLSMYKFANDLNTTGYADTRVETETGLQYTFNETVALRVNYYLERGFNMDDSRNNGEFSTQEIRAYLPLTLGNHSVTPYTRIGLDRWSNWDWQGLEICQNVCYYGDDIEREGHDFNRVGLFYGYDFQNGLSVSLEYAFEWQDHDEGDSDKFHYAGVGVNYSF
notes: also called Loop 6 SA1.1
Q: B1 was tested. Which Kd [1] did it give?
A: Its Kd is 8.83 µM.

Q: What about the kon [2] of the same binder?
A: The kon was 69100 M⁻¹ s⁻¹.

Q: And the koff [3]?
A: Its koff is 0.783 s⁻¹.

B2: OmpG^L3-FLAG/L6-SA1.1 (designed binder)
chain: MEERNDWHFNIGAMYEIENVEGYGEDMDGLAEPSVYFNAANGPWRIALAYYQEGPVDYSAGKRGTWFDRPELEVHYQFLENDDFSFGLTGGFRNYGYHYVDEPGDYKDDDDKGGKDTANMQRWKIAPDWDVKLTDDLRFNGWLSMYKFANDLNTTGYADTRVETETGLQYTFNETVALRVNYYLERGFNMDDSRNNGEFSTQEIRAYLPLTLGNHSVTPYTRIGLDRWSNWDWQGLEICQNVCYYGDDIEREGHDFNRVGLFYGYDFQNGLSVSLEYAFEWQDHDEGDSDKFHYAGVGVNYSF
notes: Possible glycines beside SA1.1 (primers) not built in; also called multiplex sensor; SA1.1 multiplex sensor
Q: Which results are given for B2?
A: Kd [4]: 7.54 µM; kon [5]: 73200 M⁻¹ s⁻¹; koff [6]: 0.552 s⁻¹

B3: OmpG^L3/L6-SA1.1 (designed binder)
chain: MEERNDWHFNIGAMYEIENVEGYGEDMDGLAEPSVYFNAANGPWRIALAYYQEGPVDYSAGKRGTWFDRPELEVHYQFLENDDFSFGLTGGFRNYGYHYVDEPGLEICQNVCYYGGKDTANMQRWKIAPDWDVKLTDDLRFNGWLSMYKFANDLNTTGYADTRVETETGLQYTFNETVALRVNYYLERGFNMDDSRNNGEFSTQEIRAYLPLTLGNHSVTPYTRIGLDRWSNWDWQGLEICQNVCYYGDDIEREGHDFNRVGLFYGYDFQNGLSVSLEYAFEWQDHDEGDSDKFHYAGVGVNYSF
notes: SA1.1 motif in both loops 3 and 6; also called avidity sensor; avidity nanopore sensor
Q: B3 was tested. Which “fold change of KOff against OmpG^L6-SA1.1” value [7] did it give?
A: Its value is about 76 fold.

Q: What about the “fold change of KOn against OmpG^L6-SA1.1” value [7] of the same binder?
A: Its value is about 4.7 fold.

Q: And the koff [8]?
A: Its koff is 0.0103 s⁻¹.

Q: What about the kon [8] of the same binder?
A: The kon was 326000 M⁻¹ s⁻¹.

Q: What about the koff [9] of the same binder?
A: The koff was 0.701 s⁻¹.
